Results reported in the supplement of paper PMC10126150.
± gives the standard deviation of the averaged measurements.

tested on: ATP; assay: switch fluorescence ratio, 500 uM ATP over buffer (Cy3 cluster intensity, sum of 5 cycles each) (fold (ratio)); higher = stronger signal-on switching upon ATP binding; sequences stand for … in TCGTCGGCAGCGTCAGATGTGTATAAGAGACAGTTTTTTTTTTTTTTTTTTTTTTTTT…TC; settings: aptamer strand: ATP DNA aptamer (quencher-CACCTGGGGGAGTATTGCGGAGGAAGG + anchor), 100 nM annealed; ATP concentration: 500 uM
Outline: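 Per cluster, summed Cy3 intensity from the target cycles was divided by that from the buffer cycles to give the fluorescence ratio, then averaged per switch-domain sequence. Clusters outside 100-1000 RFU were excluded. The Cy3-labelled switching-strand clusters, on a modified Illumina MiSeq flow-cell, were annealed to 100 nM quencher-labelled ATP aptamer and imaged in selection buffer, then after 15 min with 500 uM ATP at 22 °C, for five cycles with NaOH stripping and re-annealing between them.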
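Note: ATP exposure 15 min at 22 °C before imaging.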

Row | Sequence | switch fluorescence ratio
1 | AGGTACAGTA | 1.017 ± 0.0017
2 | CGTTTTGGGA | 0.98 ± 0.013
3 | TCGGAGCCAC | 3.16 ± 3
4 | AGTGATGCTT | 0.992 ± 0.036
5 | CGGTGTGGCT | 0.97 ± 0.016
6 | TTTTGCACCG | 1.02 ± 0.053
7 | CAAATAACGG | 1 ± 0.023
8 | TTGGAATGTT | 0.952 ± 0.043
9 | TTTCTCGGCT | 1 ± 0.035
10 | TGATTTTGCC | 1.01 ± 0.018
11 | GAAGTTGCGA | 0.9835 ± 0.0091
12 | GAATATACCG | 1.03 ± 0.042
13 | CATTGTTGAC | 0.961 ± 0.02
14 | TGGTATTGCT | 0.9955 ± 0.0098
15 | TAAAAGGGTA | 1 ± 0.019
16 | AATAGAGTGG | 0.99 ± 0.024
17 | TTTGACTATG | 0.999 ± 0.022
18 | AAGTGAGGGG | 0.998 ± 0.028
19 | GGGCGCCAAA | 1.0045 ± 0.00091
20 | TAAAAATTGG | 0.997 ± 0.014
21 | TAAGATGTTG | 1.01 ± 0.019
22 | TTGGTTTTAT | 1.02 ± 0.014
23 | GGCGTAGGGG | 1.02 ± 0.038

Row | Sequence | switch fluorescence ratio
24 | TATGGCATCT | 1 ± 0.051
25 | AAAGCAATTG | 1.077 ± 0.0065
26 | ACTGACGATG | 1.31 ± 0.018
27 | TGAGGTGAAA | 0.976 ± 0.03
28 | TAAGGGGTTC | 0.982 ± 0.022
29 | AACCAGTTTT | 0.98 ± 0.027
30 | ATCAGTGAGA | 1.03 ± 0.032
31 | GGAGATTGGT | 0.983 ± 0.024
32 | TGCGGGGTCG | 1.01 ± 0.016
33 | GGGAAAAAAT | 1 ± 0.035
34 | TTATTCGGCG | 1 ± 0.032
35 | GGCAGCTGGT | 1.01 ± 0.03
36 | GGGATCATAG | 0.9961 ± 0.0072
37 | AGGGACGAGT | 1.07 ± 0.11
38 | CGTGGGGTTC | 0.983 ± 0.021
39 | ATTTTCATGG | 0.954 ± 0.02
40 | CGGGGTGCCT | 0.999 ± 0.024
41 | GGGAGGCTTC | 1 ± 0.021
42 | GGCCTCATGC | 1.02 ± 0.017
43 | TTTCATTTTT | 0.999 ± 0.035
44 | ACGGAGGGAT | 1.32 ± 0.032
45 | GGGAGTGTAA | 1 ± 0.033
46 | AGCACGAGGG | 0.9816 ± 0.0093

Row | Sequence | switch fluorescence ratio
47 | GCCGGTAGGG | 0.98 ± 0.031
48 | AAAATGGATG | 0.983 ± 0.031
49 | TCCCTAACAC | 1.12 ± 0.023
50 | TGTACTATGC | 1.06 ± 0.058
51 | AGCTTGTTCG | 0.987 ± 0.023
52 | TTTTGCGAAT | 0.996 ± 0.018
53 | ATTATATGTG | 1.02 ± 0.027
54 | GTTTATTAAA | 1.04 ± 0.012
55 | AGCCGTTGAG | 0.9916 ± 0.0061
56 | GGAGCATTTG | 1.27 ± 0.039
57 | ACACATCATA | 1.07 ± 0.032
58 | CAGCGAAGAG | 1.01 ± 0.0025
59 | TGTTGTGAGG | 0.997 ± 0.025
60 | GCTGACGGGA | 1.1 ± 0.015
61 | CATTGGTAAT | 1.018 ± 0.0059
62 | CGAGGGGTTG | 1 ± 0.04
63 | TTTCCGTTTC | 1.06 ± 0.04
64 | TAAAAGTTTG | 0.996 ± 0.034
65 | TTTTATACTT | 1 ± 0.011
66 | TTTTGGTAAT | 1.01 ± 0.014
67 | ACCATATGGA | 1.02 ± 0.064
68 | AGGCGAAACG | 0.97 ± 0.065
69 | GGAGAGGGGA | 0.982 ± 0.014

Row | Sequence | switch fluorescence ratio
70 | GGGATGACAG | 1.02 ± 0.072
71 | GAAGAACGGG | 1.006 ± 0.0036
72 | GCGGCACGTG | 0.97 ± 0.048
73 | AATTTTTTAT | 0.979 ± 0.036
74 | CTACCAGGGA | 1.149 ± 0.0019
75 | GTAGTAAGAT | 1.07 ± 0.064
76 | TGGAGGATTG | 0.991 ± 0.016
77 | TCGTAGCTGT | 1.18 ± 0.052
78 | TGCGTTTTTA | 1 ± 0.043
79 | TTTAGGGA | 0.973 ± 0.033
80 | GGTGTTTCGT | 0.9735 ± 0.001
81 | CATGCGCTGG | 1.17 ± 0.13
82 | GATTGGCACC | 0.965 ± 0.014
83 | ATTTGCCCAT | 0.986 ± 0.019
84 | AGACAATTAG | 1.01 ± 0.093
85 | ACTTCAGGGG | 1.13 ± 0.1
86 | TGGTATATTA | 0.983 ± 0.027
87 | AAAGCAATGG | 2.51 ± 2
88 | TTAGTAGTTG | 1.02 ± 0.028
89 | CGCTATATGG | 1.32 ± 0.047
90 | CGAGCCTTGT | 1.01 ± 0.04
91 | AAAATATTCG | 1.01 ± 0.011
92 | CTTAGGGCTC | 1.026 ± 0.0042

Row | Sequence | switch fluorescence ratio
93 | TCCAGTATGG | 1.012 ± 0.008
94 | TAAGTTATGG | 0.997 ± 0.02
95 | AATCCCGCCA | 1.19 ± 0.034
96 | AAAACATGGA | 0.9537 ± 0.0037
97 | TAGTGTAGGA | 1 ± 0.034
98 | GATAGGTTGG | 0.985 ± 0.066
99 | AGTCGGGCGT | 1 ± 0.046
100 | TTTTGAAGTC | 1.03 ± 0.092
101 | TCTTGTTTGG | 0.994 ± 0.049
102 | ACCATTAATT | 0.991 ± 0.029
103 | AGTGACGGTA | 1.04 ± 0.042
104 | AGGTTTGCGA | 1.02 ± 0.018
105 | CCGTGTGGGT | 1.01 ± 0.018
106 | TTTTAAATCT | 1.03 ± 0.019
107 | TGTGATCGAC | 1.01 ± 0.018
108 | GGATTTACGG | 1.001 ± 0.0028
109 | GACGTTTTTA | 1.01 ± 0.046
110 | GCTCGTCGGC | 0.9987 ± 0.0018
111 | CAATTAGGAG | 0.979 ± 0.024
112 | TGACTTGGGG | 0.995 ± 0.033
113 | GGGCAATCGG | 1.75 ± 0.97
114 | GAAGTAGGGG | 0.977 ± 0.033
115 | TGGGGTAGGG | 0.998 ± 0.026

Row | Sequence | switch fluorescence ratio
116 | GCCCGGGGGA | 1.94 ± 1.3
117 | AGTGAATCTG | 0.992 ± 0.085
118 | TACGTCATTA | 1.2 ± 0.012
119 | GTAATCTCTG | 1.01 ± 0.028
120 | CCGCTTTTTT | 1.28 ± 0.23
121 | GCGGGATGGG | 1.08 ± 0.07
122 | TTATTTGATT | 1.01 ± 0.029
123 | GACCGTTTGA | 1.03 ± 0.03
124 | TTCGGCCACG | 1.01 ± 0.036
125 | AACCGCGCTT | 1.18 ± 0.083
126 | TACTGTGGTC | 1.025 ± 0.0053
127 | ATTTGCTATT | 1.003 ± 0.0045
128 | TAATACTATG | 1.05 ± 0.074
129 | GACGTTGCTA | 1.06 ± 0.019
130 | TCACGTGGTA | 1.02 ± 0.021
131 | AATGGGTGAG | 0.982 ± 0.014
132 | GATGCTGGCG | 1.01 ± 0.052
133 | TCACTATACT | 1.41 ± 0.085
134 | GGGGTTTCCG | 0.9992 ± 0.0093
135 | CGAGTATTAC | 1.09 ± 0.04
136 | TTCTTAGCCG | 1.0545 ± 0.00031
137 | GGTTCTTTAG | 1.015 ± 0.0033
138 | GATCGGGGGG | 0.983 ± 0.041

Row | Sequence | switch fluorescence ratio
139 | TTTTTGGTTG | 1.01 ± 0.012
140 | AAAAAACGCC | 1.02 ± 0.027
141 | TAAGGGTGCA | 0.994 ± 0.064
142 | ATAGACGTAT | 1.01 ± 0.011
143 | GGGGCCGTGC | 1.01 ± 0.038
144 | TTTATATGTA | 1.01 ± 0.022
145 | CTGGTGATTT | 1.05 ± 0.053
146 | TGGCCGGTGT | 0.991 ± 0.032
147 | GGGGGGAGAC | 1.07 ± 0.19
148 | GGTATATTGG | 1.01 ± 0.012
149 | AACGTTGCTT | 1.01 ± 0.013
150 | TGGAAATAAG | 1.03 ± 0.047
151 | TTCCGTTTTA | 1.15 ± 0.17
152 | GATGTACAGT | 1.035 ± 0.0072
153 | GTAAAGAGTT | 0.992 ± 0.011
154 | ATTAAGGGCA | 0.97 ± 0.011
155 | TTGTTATTTA | 0.9903 ± 0.0019
156 | TTCAATGGCA | 1.0245 ± 0.00028
157 | TATAACGGAT | 1.01 ± 0.025
